The values below come from patent WO2020228604A1 (dated 2020).

The target in test [1] is T1, human TROP-2 protein with His tag (TROP-2-His) (human, UniProt P09758 27-274).
T1 construct: Bought reagent (Sino Biological 10428-H08H); also called TROP-2His protein; human TROP-2 His antigen; not shown: His tag
T1 sequence (looked up): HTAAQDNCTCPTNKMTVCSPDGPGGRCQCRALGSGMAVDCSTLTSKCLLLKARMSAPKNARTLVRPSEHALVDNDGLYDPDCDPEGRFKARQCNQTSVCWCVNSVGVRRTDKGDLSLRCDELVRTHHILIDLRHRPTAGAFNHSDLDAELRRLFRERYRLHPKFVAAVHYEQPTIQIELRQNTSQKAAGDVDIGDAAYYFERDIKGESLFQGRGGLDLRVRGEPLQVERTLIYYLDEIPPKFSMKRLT
Nature of the test: competition ELISA; competitor: coated hRS7; test antibody diluted to 100 ug/ml and added with TROP-2-His.

For test [2], the target named is T1, human TROP-2 protein with His tag …. Nature of the test: indirect ELISA, TROP-2-His coated at 1 ug/ml. On the technique in general: An ELISA detects its analyte on a solid surface through an enzyme-linked reagent.

B1: humanized anti-TROP-2 antibody HU1 (antibody, V domains shown)
VH: QVQLVQSGAEVKKPGSSVKVSCKASGYTFTNYWMNWVRQAPGKGLEWVGRIDPNDSETHYNQKFKDRFTITRDNSKNTLYLQMNSLRAEDTAVYYCARSGFGSTYWFFDVWGQGTTVTVSS
VL: AIRMTQSPFSLSASVGDRVTITCKASQDVSTAVAWYLQKPGQSPQLLIYSASYRYTRIPPRFSGSGYGTDFTLTINNIESEDAAYYFCQQHYSTPLTFGQGTRLEIK
In turn, B1 had an inhibition rate in test [1] of 13.5%.

B2: humanized anti-TROP-2 antibody HU10 (antibody, V domains shown)
VH: B1 VH
VL: B1 VL
In test [1], B2 had an inhibition rate of 10.2%.

B3: humanized anti-TROP-2 antibody HU6 (antibody, V domains shown)
VH: EVQLLESGGGLVQPGGSLRLSCAASGFTVSNYWMNWVRQAPGKGLEWMGRIDPNDSETHYNQKFKDRVTISVDKSKNQFSLKLSSVTAADTAVYYCARSGFGSTYWFFDVWGQGTTVTVSS
VL: DVVMTQSPLSLPVTLGQPASISCKASQDVSTAVAWYQQKPGKAPKLFIYSASYRYTGVPSRFSGSGSGTDFTLTISSLQPEDFATYYCQQHYSTPLTFGQGTRLEIK
The molecule B3 had an inhibition rate in test [1] of 6.7%.

B4: humanized anti-TROP-2 antibody HU6DL (antibody, V domains shown)
VH: B3 VH
VL: B3 VL
For B4, the inhibition rate in test [1] was determined as 5.9%.

B5: murine monoclonal antibody M1 (antibody, V domains shown)
VH: QVQLQQPGAELVRPGASVKLSCRASGYTFTNYWMNWVKQRPEQGLEWIGRIDPNDSETHYNQKFKDRAILTVDKASNTAYMQLSGLTSEDSAVHYCARSGFGSTYWFFDVWGAGTTVTVSS
VL: DIVMTQSHKFMSTSVGDRVSITCKASQDVSTAVAWYQQKPGQSPKLLIYSASYRYTGVPDRFAGSGYGTDFTFTISSVQTEDLTVYHCQQHYSTPLTFGPGTRLELK
Usually EC50 stands for the concentration at which the effect is half-maximal. The low end stands for a more potent agent, the high end for a less potent agent. The molecule B5 gave a concentration for a half-maximal effect (EC50) in test [2] of 0.56 nM.
